Laboratory results as given in patent US6699969B1, “Assays for the detection of microtubule depolymerization inhibitors” (The Regents of the University of California, priority 1998, dated 2004).

Assays:
[1] = ATPase assay (modified malachite green method); assay type: biochemical
Procedure: (§1) ATPase activity was measured by a modified malachite green method (Kodama et al. (1986) J. Biochem. 99: 1465-1472). ATPase reactions of 50-100 μL were carried out in a buffer previously used for measuring the ATPase activity of native katanin [20 mM K-HEPES pH 8.0, 25 mM K-Glutamate, 2 mM MgCl2, 10% glycerol (v/v), 0.02% Triton X-100 (w/v), 1 mg/ml BSA] (McNally and Vale (1993) Cell, 75: 419-429), except that soybean trypsin inhibitor (SBTI) was replaced by BSA as a carrier protein because SBTI increased background phosphate contamination. An ATP regenerating system consisting of 0.5-1.0 mM phospho-enol pyruvate and 2U pyruvate kinase was included to minimize the inhibition by ADP observed previously for native katanin (McNally and Vale (1993) Cell, 75; 419-429). Microtubules were prepared from bovine brain tubulin (Hyman el al. (1 990) Meth. Enzymol. 196: 303-319; Williams and Lee (1982) Meth Enzymol. 85B: 376-385). After assembly, microtubules were sedimented (230,000×g; 10 min), resuspended in ATPase buffer lacking BSA, and the polymers were resuspended by repeated passage through a 27 gauge needle. Microtubule concentration was determined by measuring the absorbance at 275 nm in 6M guanidine HCl by using a molecular mass of 110 kDa and an extinction coefficient of 1.03 ml*mg^−1*cm^−1 (Hackney (1988) Proc. Natl. Acad. Sci. USA, 85: 6314-6318). […]

[2] = test system: Taxol-stabilized, rhodamine-labeled microtubules; assay: Microscope-based microtubule severing assay; assay type: biochemical
Procedure: Microscope-based severing assays were performed using previously published procedures (McNally and Vale (1993) Cell, 75: 419-429), except that microtubules were immobilized by first perfusing flow cells with a bacterially expressed kinesin mutant that binds strongly to microtubules but is unable to hydrolyze ATP (K560, G234A mutant; R. Vale and E. Taylor, unpublished results). Assays were performed in 20 mM Hepes (pH 7.5), 2 mM MgCl2, 1 mM ATP with an oxygen scavenger system consisting of glucose oxidase (220 μg/ml), catalase (36 μg/ml), glucose (22.5 mM), and 2-mercaptoethanol (71.5 mM). Images were captured using a cooled, slow-scan CCD (Photometerics) and processed using Adobe Photoshop.

microtubules = assay: DAPI fluorescence microtubule disassembly (severing) assay; assay type: biochemical, bovine; settings: 2 μM microtubules, FIG. 5C
Procedure: as §1, with “Microtubules were prepared from bovine brain tubulin (Hyman el al. (1 990) Meth. Enzymol. 196: 303-319; Williams and Lee (1982) Meth Enzymol. 85B: 376-385). After assembly, microtubules were sedimented (230,000×g; 10 min), resuspended in ATPase buffer lacking BSA, and the polymers were resuspended by repeated passage through a 27 gauge needle.” left out
DAPI severing assays were performed using conditions where the change in fluorescence intensity was linear with the amount of tubulin polymer added (Heusele et al. (1987) Eur. J. Biochem. 165: 613-620). […] The reaction volume was 80 μL, and. fluorescence intensity was measured by exciting at 370 nm and measuring the emission at 450 nm using a model 8100 fluorimeter. […]

[3] = literature values; cited from earlier work

B1: p80: S. purpuratus katanin 80 kDa subunit, 690 a.a. polypeptide with six WD40 repeats (SEQ ID NO: 2) (protein, listed as Strongylocentrotus purpuratus)
chain: MATKRAWKLQELVAHSSNVNCLALGPMSGRVMVTGGEDKKVNLWAVGKQNCIISLSGHTSPVDSVKFNSSEELVVAGSQSGTMKIYDLEPAKIVRTLTGHRNSIRCMDFHPFGEFVASGSTDTNVKLWDVRRKGCIYTYKGHSDQVNMIKFSPDGKWLVTASEDTTIKLWDLTMGKLFQEFKNHTGGVTGIEFHPNEFLLASGSSDRTVQFWDLETFQLVSSTSPGASAVRSISFHPDGSYLFCSSQDMLHAFGWEPIRCFDTFSVFWGKVADTVIASTQLIGASFNATNVSVYVADLSRMSTTGIAQEPQSQPSKTPSGGAEEVPSKPLTASGRKNFVRERPHTTSSKQRQPDVKSEPERQSPTQDEGVKDDDATDIKDPDSYAKIFSPKTRVDHSPERNAQPFPAPLDVPGAQEPEPFKHPPKPAAAAAVAPVSRAPAPSASDWQPAQANPAPNRVPAATKPVPAQEVAPSRKPDPISTIIPSDRNKPANLDMDAFLPPAHAQQAPRVNAPASRKQSDSERIEGLRKGHDSMCQVLSSRHRNLDVVRAIWTAGDAKTSVESVVNMKDQAILVDILNIMLLKKSLWNLDMCVVVLPRLKELLSSKYENYVHTSCACLKLILKNFTSLFNQNIKCPPSGIDITREERYNKCSKCYSYLIATRGYVEEKQHVSGKLGSSFRELHLLLDQLE
modifications: katanin p80 subunit
[1]; baculovirus-expressed subunit alone
  ATPase activity: no detectable ATPase activity
[2]; concentrations 5-fold higher than those used for p60 (0.5 μM)
  microtubule severing: unable to sever microtubules
microtubules
  change in DAPI fluorescence: did not cause a change in fluorescence

B2: p97: AAA ATPase cited for comparison (Peters et al. 1992) (protein, UniProt P23787 1-805, looked up)
Transitional endoplasmic …: MASGSDTKSDDLSTAILKQKSRPNRLIVDESINEDNSMVSLSQAKMDELQLFRGDTVLLKGKKRREAVCIVLSDDTCSDEKIRMNRVVRNNLRVRLGDVISIQPCPDVKYGKRVHVLPIDDTVEGITGNLFEVYLKPYFLEAYRPIRKGDIFLVRGGMRAVEFKVVETDPSPYCIVAPDTVIHCEGEPIKREDEEESLNEVGYDDIGGCRKQLAQIKEMVELPLRHPALFKAIGVKPPRGILLYGPPGTGKTLIARAVANETGAFFFLINGPEIMSKLAGESESNLRKAFEEAEKNAPAIIFIDELDAIAPKREKTHGEVERRIVSQLLTLMDGLKQRAHVIVMAATNRPNSIDPALRRFGRFDREVDIGIPDSTGRLEILQIHTKNMKLSDDVDLEQVANETHGHVGADLAALCSEAALQAIRKKMDLIDLEDETIDAEVMNSLAVTMDDFRWALSQSNPSALRETVVEVPQVTWEDIGGLEDVKRELQELVQYPVEHPDKFLKFGMTPSKGVLFYGPPGCGKTLLAKAIANECQANFISIKGPELLTMWFGESEANVREIFDKARQAAPCVLFFDELDSIAKARGGNIGDGGGAADRVINQILTEMDGMSIKKNVFIIGATNRPDIIDPAILRPGRLDQLIYIPLPDEKSRMAILKANLRKSPVAKDVDVDFLAKMTNGFSGADLTEICQRACKLAIRESIENEIRRERDRQTNPSAMEVEEDDPVPEIRRDHFEEAMRFARRSVSDNDIRKYEMFAQTLQQSRGFGSFRFPAGGQSGAGPSPGAGGGSGGGHFTEEDDDLYG
[3]
  ATPase activity of other AAA proteins: 1 ATP/sec

B3: p60: S. purpuratus katanin 60 kDa subunit, 516 a.a. AAA ATPase (SEQ ID NO: 1), baculovirus-expressed with N-terminal His(6) tag (protein, listed as Strongylocentrotus purpuratus)
chain: MSVDEICENTKMGREYALLGNYETSLVYYQGVLQQIQKLLTSVHEPQRKHQWQTIRQELSQEYEHVKNITKTLNGFKSEPAAPEPAPNHGRAAPFSHHQHAAKPAAAEPARDPDVWPPPTPVDHRPSPPYQRAARKDPPRRSEPSKPANRAPGNDRGGRGPSDRRGDARSGGGGRGGARGSDKDKNRGGKSDKDKKAPSGEEGDEKKFDPAGYDKDLVENLERDIVQRNPNVHWADIAGLTEAKRLLEEAVVLPLWMPDYFKGIRRPWKGVLMVGPPGTGKTMLAKAVATECGTTFFNVSSASLTSKYHGESEKLVRLLFEMARFYAPSTIFIDEIDSICSKRGTGSEHEASRRVKSELLIQMDGVSGPSAGEESSKMVMVLAATNFPWDIDEALRRRLEKRIYIPLPEIDGREQLLRINLKEVPLADDIDLKSIAEKMDGYSGADITNVCRDASMMAMRRRIQGLRPEEIRHIPKEELNQPSTPADFLLALQKVSKSVGKEDLVKYMAWMEEFGSV
modifications: N-terminal His6 tag; katanin p60 subunit
[1]
  microtubule concentration at peak stimulation of ATP turnover: ~2 μM tubulin
[2]; 0.1 μM protein
  time until microtubules were completely disassembled: 5 min
